Here are results for one molecule from patent US20120329854A1, “Methods and Compounds for the Diagnosis and Treatment for Cancer” (UNIVERSITÄTSKLINIKUM FREIBURG, priority 2009, published 2012).

In one data set the test system is KLK2 and FKBP5 genes. The data set can be described thus: Quantitative RT-PCR of androgen-regulated genes in LNCaP cells. The data set is classed as cell-based, human. As to conditions: miRNA-mediated knockdown (FIG. 3j). As for the experimental part:
Quantitative RT-PCR and statistical analysis were performed as described. The primers for KLK2 and FKBP5 were described previously^6, 11.

Another data set relates to LNCaP cells. The data set can be described thus: Cell proliferation assay (BrdU ELISA), R1881-induced proliferation. The data set is classed as cell-based, human. The following applies: LNCaP cells infected with lentivirus, 1×10^−9 M R1881, versus miRNA control (FIG. 4e). Here is the method:
Experiments were performed as described^2. pLenti6-miRNA-control and pLenti6-miRNA-PKCβI were used to produce recombinant lentiviruses to infect LNCaP cells as described^15. The infected cells were cultured for 72 hours in medium containing 10% double-stripped FCS. 1×10^4 cells were plated in a 96-well plate in the presence or absence of 1×10^−9 M R1881. The cell proliferation Elisa BrdU Colorimetric Assay (Roche) was performed according to the manufacturer's instructions. […] The experiments were performed in hexaplicate.
For orientation: Dividing cells build labelled thymidine or BrdU into new DNA.

B1: 5′-TGCTGTTACGTAGGGATCTGACAGGCGTTTTGGCCACTGACTGACGCCTGTCATCCCTACGTAA-3′ (nucleic acid)
DNA 1: TGCTGTTACGTAGGGATCTGACAGGCGTTTTGGCCACTGACTGACGCCTGTCATCCCTACGTAA
DNA 2: CCTGTTACGTAGGGATGACAGGCGTCAGTCAGTGGCCAAAACGCCTGTCAGATCCCTACGTAAC
modifications: expressed or natural sequence
B1: the “expression of the androgen-regulated KLK2 and FKBP5 genes” value in the data set with KLK2 and FKBP5 genes is “reduces expression”. Also, the R1881-induced cell proliferation result in the data set with LNCaP cells is listed as “severely reduces”.
